This note sets out measurements from PMC10641069, “Intra- and inter-molecular regulation by intrinsically-disordered regions governs PUF protein RNA binding” (Nature Communications, 2023).

Values joined by “and” are separate entries in the source; they are usually repeats but may differ in a detail not shown here. Identical values can stand only once. Like-named read-outs stand apart in the source and are kept apart here.

In assay [1] the target is T1, FBF-2 RBD + CT (FBF-2 residues 164-632) (C. elegans, UniProt Q09312 164-632).
T1 sequence (looked up): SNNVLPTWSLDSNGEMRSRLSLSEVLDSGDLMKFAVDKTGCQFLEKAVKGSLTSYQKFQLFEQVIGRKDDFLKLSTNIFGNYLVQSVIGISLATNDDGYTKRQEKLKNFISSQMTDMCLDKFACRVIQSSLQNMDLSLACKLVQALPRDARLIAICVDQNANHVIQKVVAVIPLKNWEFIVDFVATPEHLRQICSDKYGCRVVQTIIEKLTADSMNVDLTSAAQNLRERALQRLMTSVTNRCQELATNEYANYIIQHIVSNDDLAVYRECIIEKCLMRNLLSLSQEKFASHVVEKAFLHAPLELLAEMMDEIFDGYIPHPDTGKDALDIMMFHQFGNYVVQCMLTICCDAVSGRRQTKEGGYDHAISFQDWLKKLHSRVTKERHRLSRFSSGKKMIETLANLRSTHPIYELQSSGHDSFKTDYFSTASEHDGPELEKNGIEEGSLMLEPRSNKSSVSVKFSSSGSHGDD
As to the kind of experiment: cell-based or functional assay.

The target of assay [2] is T2, FBF-2 RBD + CT (FBF-2 residues 164-632) (C. elegans, UniProt Q09312 164-632).
T2 chain: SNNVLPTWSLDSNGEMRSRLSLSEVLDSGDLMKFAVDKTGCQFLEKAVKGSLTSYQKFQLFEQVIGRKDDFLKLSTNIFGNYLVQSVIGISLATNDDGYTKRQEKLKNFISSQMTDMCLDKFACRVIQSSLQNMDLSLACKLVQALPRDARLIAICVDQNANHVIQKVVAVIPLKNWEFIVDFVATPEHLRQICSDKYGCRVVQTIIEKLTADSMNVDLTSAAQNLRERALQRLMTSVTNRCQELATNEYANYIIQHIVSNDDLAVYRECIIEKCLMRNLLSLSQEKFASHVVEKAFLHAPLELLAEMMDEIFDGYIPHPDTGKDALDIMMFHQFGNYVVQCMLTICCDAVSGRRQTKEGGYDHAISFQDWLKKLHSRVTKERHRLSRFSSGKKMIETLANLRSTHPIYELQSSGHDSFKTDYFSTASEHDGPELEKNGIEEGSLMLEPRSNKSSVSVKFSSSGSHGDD
The assay is described as follows: ITC. A general note: In ITC the heat of successive injections is recorded.

The target of assay [3] is T3, FBF-2 RBD (FBF-2 residues 164-575) (C. elegans, UniProt Q09312 164-575).
T3 chain: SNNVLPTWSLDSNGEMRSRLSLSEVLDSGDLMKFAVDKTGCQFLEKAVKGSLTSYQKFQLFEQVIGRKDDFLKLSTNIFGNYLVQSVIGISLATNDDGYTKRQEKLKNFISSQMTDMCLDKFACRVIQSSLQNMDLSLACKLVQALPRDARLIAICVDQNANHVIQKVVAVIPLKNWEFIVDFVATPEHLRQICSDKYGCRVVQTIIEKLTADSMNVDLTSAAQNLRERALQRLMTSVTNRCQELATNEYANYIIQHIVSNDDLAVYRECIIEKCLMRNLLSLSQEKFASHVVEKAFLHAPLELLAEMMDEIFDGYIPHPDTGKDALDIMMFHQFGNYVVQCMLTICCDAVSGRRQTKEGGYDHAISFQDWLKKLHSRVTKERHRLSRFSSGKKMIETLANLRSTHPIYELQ
The assay is described as follows: ITC.

The target of assay [4] is T4, FBF-2 RBD + CT Loop6A (C. elegans, UniProt Q09312 164-632, E592A | D594A | E597A | E599A | E604A | E605A).
T4 sequence: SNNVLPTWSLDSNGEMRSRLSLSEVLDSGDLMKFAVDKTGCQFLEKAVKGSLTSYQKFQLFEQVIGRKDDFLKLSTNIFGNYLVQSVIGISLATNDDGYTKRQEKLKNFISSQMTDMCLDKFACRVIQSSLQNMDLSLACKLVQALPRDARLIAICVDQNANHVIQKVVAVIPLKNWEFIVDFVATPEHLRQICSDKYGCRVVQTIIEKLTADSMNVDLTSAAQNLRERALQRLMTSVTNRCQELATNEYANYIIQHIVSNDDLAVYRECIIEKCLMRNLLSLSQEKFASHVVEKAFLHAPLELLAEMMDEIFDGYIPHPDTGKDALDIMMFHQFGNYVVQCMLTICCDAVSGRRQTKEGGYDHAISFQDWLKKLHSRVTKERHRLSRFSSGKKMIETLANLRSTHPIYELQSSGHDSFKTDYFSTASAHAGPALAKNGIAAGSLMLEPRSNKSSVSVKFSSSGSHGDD
The assay is described as follows: ITC.

Assay [5] addresses T5, FBF-2 RBD + CT L610A (C. elegans, UniProt Q09312 164-632, L610A).
T5 sequence: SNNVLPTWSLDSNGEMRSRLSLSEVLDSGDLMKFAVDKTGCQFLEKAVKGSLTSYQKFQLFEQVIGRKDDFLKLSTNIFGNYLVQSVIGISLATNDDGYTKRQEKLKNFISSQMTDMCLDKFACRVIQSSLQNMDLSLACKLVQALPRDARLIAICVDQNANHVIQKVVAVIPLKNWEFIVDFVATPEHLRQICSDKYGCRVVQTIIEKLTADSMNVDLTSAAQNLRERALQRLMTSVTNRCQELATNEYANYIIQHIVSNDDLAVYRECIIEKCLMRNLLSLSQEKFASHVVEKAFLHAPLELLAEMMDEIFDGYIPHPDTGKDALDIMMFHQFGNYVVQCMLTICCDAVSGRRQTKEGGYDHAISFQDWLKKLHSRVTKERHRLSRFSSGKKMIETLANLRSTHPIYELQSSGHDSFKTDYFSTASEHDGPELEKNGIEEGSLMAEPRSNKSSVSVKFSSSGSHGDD
The assay is described as follows: ITC.

For assay [6], the target named is T3, FBF-2 RBD (FBF-2 residues 164-575). As to the kind of experiment: ITC.
For assay [7], the target named is T1, FBF-2 RBD + CT (FBF-2 residues 164-632). The assay is described as follows: ITC; peptide (100–400 µM) titrated from the syringe into the cell containing FBF-2 (10–30 µM); 20 °C; 20 mM HEPES pH 7.4, 150 mM NaCl, 0.5 mM TCEP; no RNA; one-site model; mean of two replicates. As to conditions: both partners purified.
Assay [8] concerns the target T6, FBF-2 RBD + CT L610A (C. elegans, UniProt Q09312 164-632, L610A).
T6 construct: source: E. coli, expressed and purified like wild type proteins; not shown: His6-SUMO, N-terminal, cleaved
T6 sequence (looked up): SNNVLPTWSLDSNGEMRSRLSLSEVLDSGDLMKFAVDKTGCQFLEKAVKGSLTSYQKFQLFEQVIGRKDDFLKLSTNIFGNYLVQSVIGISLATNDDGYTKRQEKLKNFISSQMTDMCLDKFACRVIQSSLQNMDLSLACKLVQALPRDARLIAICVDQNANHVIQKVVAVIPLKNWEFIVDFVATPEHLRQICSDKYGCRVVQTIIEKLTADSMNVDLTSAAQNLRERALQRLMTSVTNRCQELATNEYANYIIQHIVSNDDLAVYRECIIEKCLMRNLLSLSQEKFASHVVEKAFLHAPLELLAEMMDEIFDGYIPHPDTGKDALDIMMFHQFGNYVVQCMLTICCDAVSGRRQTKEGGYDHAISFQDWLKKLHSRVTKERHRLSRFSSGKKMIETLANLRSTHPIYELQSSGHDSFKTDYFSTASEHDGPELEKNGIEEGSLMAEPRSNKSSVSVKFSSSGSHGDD
The assay is described as above. As to conditions: both partners purified.

Assay [9] concerns the target T7, FBF-2 RBD + CT Loop6A (C. elegans, UniProt Q09312 164-632, E592A | D594A | E597A | E599A | E604A | E605A).
T7 construct: source: E. coli, expressed and purified like wild type proteins; not shown: His6-SUMO, N-terminal, cleaved
T7 sequence (looked up): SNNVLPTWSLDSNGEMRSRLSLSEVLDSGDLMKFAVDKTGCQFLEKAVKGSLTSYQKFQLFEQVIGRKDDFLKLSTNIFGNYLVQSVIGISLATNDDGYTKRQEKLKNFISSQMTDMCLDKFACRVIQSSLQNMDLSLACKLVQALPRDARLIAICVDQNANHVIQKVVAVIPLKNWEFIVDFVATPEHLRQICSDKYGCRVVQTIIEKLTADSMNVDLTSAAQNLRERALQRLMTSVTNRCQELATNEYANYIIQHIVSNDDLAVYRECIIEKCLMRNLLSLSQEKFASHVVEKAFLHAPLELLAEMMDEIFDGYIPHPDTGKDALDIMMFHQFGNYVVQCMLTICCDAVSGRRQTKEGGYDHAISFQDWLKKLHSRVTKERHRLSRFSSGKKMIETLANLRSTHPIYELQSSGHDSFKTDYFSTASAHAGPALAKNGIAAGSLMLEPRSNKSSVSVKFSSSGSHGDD
Described as above. The conditions noted are these: both partners purified.

B1: LST-1 B peptide (LST-1 residues 67-98) (peptide, UniProt P91820 67-98, looked up)
chain: SSSPQQRSGLRSQKLHLTYIEKNKRVRAMIPQ
notes: The tag was cleaved with Ulp1 protease; also called LST-1^67–98; source: E. coli, purified (Ni-NTA, heparin, Superdex 75); not shown: His6-SUMO, N-terminal, cleaved
Usually Kd stands for the equilibrium constant for the complex coming apart. Regarding B1, the “RNA-binding affinity of FBF-2 RBD + CT for gld-1 FBEa RNA by EMSA in the presence of 50 µM LST-1 B” value in assay [1] is 5 fold. Further, the Kd in [2] was 2100 nM and 3300 nM; in [3] it was 46 nM and 45 nM; with FBF-2 RBD + CT Loop6A [4], 1300 nM and 1100 nM; with FBF-2 RBD + CT L610A [5], 46 nM and 77 nM; in [6] it was 50 nM; in assay [7], 2700 nM. Besides, in the assay with FBF-2 RBD + CT L610A [8], the Kd turned out to be 60 nM. In the assay with FBF-2 RBD + CT Loop6A [9], the binding result is given as “binds”.
